Measurements reported in patent publication US20200138866A1 (XYPHOS BIOSCIENCES, published 2020).

Target: T1, Fc-NKG2D.Y152A (human)
T1 construct: also called NKG2D.YA; Fc-NKG2D.YA
Assay: ELISA and Octet

T1 sequence (chain, as listed by the source Y152A Y152A limits assumed): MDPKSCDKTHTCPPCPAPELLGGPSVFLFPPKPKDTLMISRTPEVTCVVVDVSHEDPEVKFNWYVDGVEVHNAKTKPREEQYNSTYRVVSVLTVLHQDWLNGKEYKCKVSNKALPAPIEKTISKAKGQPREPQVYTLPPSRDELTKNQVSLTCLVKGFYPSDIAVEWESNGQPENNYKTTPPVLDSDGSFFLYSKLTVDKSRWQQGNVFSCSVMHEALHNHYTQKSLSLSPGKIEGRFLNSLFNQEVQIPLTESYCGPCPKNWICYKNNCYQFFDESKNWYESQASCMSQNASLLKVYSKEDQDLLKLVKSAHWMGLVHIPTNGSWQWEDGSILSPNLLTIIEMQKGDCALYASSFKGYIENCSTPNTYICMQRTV

B1: rituximab-ULBP2.S3 MicAbody (bispecific antibody, human IgG1, kappa)
heavy: not shown
light: QIVLSQSPAILSASPGEKVTMTCRASSSVSYIHWFQQKPGSSPKPWIYATSNLASGVPVRFSGSGSGTSYSLTISRVEAEDAATYYCQQWTSNPPTFGGGTKLEIKRTVAAPSVFIFPPSDEQLKSGTASVVCLLNNFYPREAKVQWKVDNALQSGNSQESVTEQDSKDSTYSLSSTLTLSKADYEKHKVYACEVTHQGLSSPVTKSFNRGECAPTSSSGGGGSEPHSLSYDITVIPKFRPGPRWCAVQGQVDEKTFLHYDCGNKTVTPVSPLGKKLNVTTAWKAQNPVLREVVDILTEQLWDIQLENYTPKEPLTLQARMSCEQKAEGHSSGSWQFSFDGQIFLLFDSEKRMWTTVHPGARKMKEKWENDKVVATKLYLWSMGDCIGWLEDFLMGMDSTLEPS
notes: also called ULPB2.S3; U2S3 MicAbody
B1: binds.
